Test results published in patent US20110293610A1 (published 2011).

B1: I067F05 (scFv)
scFv: QVQLQQSGAEVKKPGSSVKVSCKASGGTFSSYAISWVRQAPGQGLEWMGRIIPIVNMANYAQKFQGRVTLTADKSTGTAYMELTSLRSEDTAVYYCARENYDSLTGYYGAFDIWGKGTMVTVSSGGGGSGGGGSGGGGSQSVLTQPASVSGSPGQSITISCTGTSSDVGGYNYVSWYQQHPGKAPKLMIYEGSKRPSGVSNRFSGSKSGNTASLTISGLQAEDEADYYCSSYTTRSTRVFGGGTKLTVLG
B2: I064C04 (scFv)
scFv: QVQLVQSGAEVKKPGASVKVSCEASGYTFTSYGISWVRQAPGQGLEWMGWISTYNGNTRYPQKLQGRVTMTTDTSTSTAYMDLRSLRSDDTAVYYCARDGRLSYDILTGYYARDYYGMDDWGRGTMVTVSSGGGGSGGGGSGGGGSQSVLTQPASVSGSPGQSITISCTGTSSDVGGYNYVSWYQQHPGKAPKLMIYEGSKRPSGVSNRFSGSKSGNTASLTISGLQAEDEADYYCSSYTTRSTRVFGGGTKLTVLG
B3: I026C04-R (scFv)
scFv: QVQLVQSGAEVKKPGSSVKVSCRASGGSFNRHAISWVRQAPGRGLEWMGGILPMYGTANYAQKFQGRVTITADKLTNTVYMDLSRLRYEDTAVYYCARELGLSIVGATTGALDMWGKGTLVTVSSGGGGSGGGGSGGGGSAQSVLTQPPSVSAAPGQKVTISCSGSSSNIGNNYVSWYQQIPGTAPKLLIYENNKRPSGIPDRFSGSKSGASATLDITGLQTGDEADYYCGTWHSSQVVFGGGTKLTVLG
B4: I067B10 (scFv)
scFv: QMQLVQSGAEVKKPGASVKVSCKASGYTFTSYYMHWVRQAPGQGLEWMGWINAGNSNTKYSQKFQGRVTITSDTSASTAYMELSGLRSEDTAVYYCARDRGAPNYDILTGYYAPAQGVAFDIWGKGTLATVSSGGGGSGGGGSGGGGSQSVLTQPPSVSAAPGQKVTISCSGSTSNIGNNYVSWYQQHPGKAPKLMIYDVSKRPSGVPDRFSGSKSGNSASLDISGLQSEDEADYYCAAWDDSLSEFLFGTGTKLTVLG
B5: I064C07 (scFv)
scFv: QVQLVQSGAEVKKPGSSVKVSCKASGGTFSSYAISWVRQAPGQGLEWMGGIIPIFGTANYAQKFQGRVTITADDLTRTAYMEMSSLKFEDTAVYYCASSEGTIFGVDWGRGTLVTVSSGGGGSGGGGSGGGGSDIQMTQSPSFLSASVGDRVTITCRASQGINNYLAWYQQKPGRAPKLLMYAASSLQSGVPSRFSGSGSGTDFTLTISSLQPEDFATYYCLQDSDYPLTFGGGTKLEIKR

Molecular target: T1, biotinylated B Lymphocyte Stimulator, soluble form (human, UniProt Q9Y275 134-285, biotinylated with NHS-biotin, molar ratio 20:1 biotin:protein)
T1 construct: also called bio-B Lymphocyte Stimulator; free B Lymphocyte Stimulator
Assay: phage scFv, receptor binding inhibition on IM9 cells
Method: All of the unique phage scFvs from panel 2 were assessed for their ability to inhibit B Lymphocyte Stimulator binding to its cognate receptor on IM9 cells. The biotinylation of B Lymphocyte Stimulator, maintenance of IM9 cells and receptor binding inhibition assay were performed as described in Example 3.

Binding result, binds:
B1, B2, B3, B4, B5
